The source of these data is patent US20220243213A1, “ANTI-CRISPR INHIBITORS” (THE REGENTS OF THE UNIVERSITY OF CALIFORNIA, published 2022).

Series [1] has as its system AcrIIA1 (phage A006) (Listeria phage A006). In words: MST. The settings on record: 34 nM stated in Example 5 (p151).
Series [2] has as its system AcrIIA1 NTD (Listeria phage A006). In words: MST.
Series [3] addresses Listeria monocytogenes Cas9 (LmoCas9) (Listeria monocytogenes). In words: cell-based or functional assay.
The target in series [4] is T1, Aca1 R44A (Pseudomonas aeruginosa phage JBD30, R44A).
T1 chain: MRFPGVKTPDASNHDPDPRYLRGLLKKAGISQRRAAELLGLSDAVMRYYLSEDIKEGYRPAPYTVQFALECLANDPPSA
In words: EMSA; binding completely abolished; 10-500 nM. The settings on record: tags: p15TV-L expression, Ni-NTA purified; chain copies: 2 (inferred). Here is the method:
FIG. 4A: Representative electrophoretic mobility shift assays with indicated Aca1 mutants using the 110 bp upstream region from phage JBD30 as a substrate. Purified protein was added at concentrations of 10 nM, 50 nM, 100 nM, 250 nM and 500 nM. […] Non-denaturing acrylamide gels stained with SYBR gold are shown. FIG. 4B: The anti-CRISPR promoter region from phage JBD30 was cloned upstream of a promoterless lacZ gene. β-galactosidase activity was measured in a wild-type JBD30 lysogen (WT Aca1), JBD30 Aca1 mutant lysogens as indicated, and wild-type PA14 with no prophage (−). The mean from three independent experiments relative to the wild-type Aca1 JBD30 lysogen is shown, with error bars representing the standard error of the mean. FIG. 4C: Lysates of phage JBD30 (WT or Aca1R44A mutant) were spotted in 10-fold serial dilutions on bacterial lawns of wild-type P. aeruginosa PA14, a CRISPR deletion version of PA14 (PA14ΔCRISPR), or on the deletion strain bearing a plasmid that expresses Aca1. These phages are targeted by the CRISPR-Cas system in the absence of anti-CRISPR activity. Representative images from three biological replicates are shown. […] FIG. 4E: The transcript levels of the acrIF1 and aca1 genes in phages bearing anti-CRISPR promoter operator mutants and aca mutants were determined by RT-qPCR. […]
A general note: In EMSA bound probe runs differently from free probe, usually more slowly.

The target of series [5] is T2, Aca1 (Pseudomonas aeruginosa phage JBD30).
T2 chain: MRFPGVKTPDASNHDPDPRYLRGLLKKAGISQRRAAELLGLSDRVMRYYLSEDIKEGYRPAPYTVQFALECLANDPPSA
In words: EMSA; 10 mM HEPES pH 7.5, 1 mM MgCl2, 20 mM KCl, 1 mM TCEP, 6% glycerol, on ice; second shifted band at higher concentrations. The settings on record: tags: p15TV-L expression, Ni-NTA purified; chain copies: 2 (inferred; HTH proteins stated generally dimeric). An excerpt: Aca1 acts on the acr promoter. Aca1 proteins are bioinformatically predicted to contain a helix-turn-helix (HTH) DNA-binding motif (FIG. 8A). HTH-containing proteins are generally dimeric and bind to inverted repeat sequences. We identified two such sites with very similar sequences which we refer to as IR1 and IR2, flanking the −35 region of the acrIF1 promoter (FIG. 3B). To determine whether Aca1 could bind to the anti-CRISPR promoter region, purified Aca1 was mixed with a 110 bp dsDNA fragment containing the acr promoter and an electrophoretic mobility shift assay (EMSA) was performed. […] At higher Aca1 concentrations, a second shifted band was observed, consistent with the presence of two Aca1 binding sites within this fragment.
Electrophoretic mobility shift assay. Varying concentrations of purified Aca1 or Aca1 mutants were mixed with 20 ng of target DNA (gel purified PCR product or annealed oligo) in binding buffer (10 mM HEPES pH 7.5, 1 mM MgCl₂, 20 mM KCl, 1 mM TCEP, 6% v/v glycerol) and incubated on ice for 20 minutes. The DNA-protein complexes were separated by gel electrophoresis at 100 V on a 6% native 0.5× TBE polyacrylamide gel. Gels were stained at room temperature with Sybr gold (Invitrogen) and visualized according to the supplier's instructions. Bands were quantified using Image Lab 6.0 software (BioRad). […]

For series [6], the target named is T3, Aca1 (in cell) (Pseudomonas aeruginosa phage JBD30).
T3 chain: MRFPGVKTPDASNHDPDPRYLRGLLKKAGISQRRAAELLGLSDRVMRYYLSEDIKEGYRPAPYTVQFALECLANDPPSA
In words: cell_activity; lacZ reporter in P. aeruginosa JBD30 lysogen.

In series [7] the target is T4, Aca2 ZF40 (Pectobacterium phage ZF40, UniProt H9C180 H9C180:1-116).
T4 sequence: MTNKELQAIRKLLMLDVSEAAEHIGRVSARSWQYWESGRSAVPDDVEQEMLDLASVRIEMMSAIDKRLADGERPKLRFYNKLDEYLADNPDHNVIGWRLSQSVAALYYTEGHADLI
In words: cell_activity; lacZ reporter in E. coli; text listing of SEQ 6 differs from the Table 8 sequence for this accession. The settings on record: chain copies: 2. An excerpt: By aligning the intergenic regions found immediately upstream of anti-CRISPR genes associated with aca2, we detected a conserved inverted repeat sequence that could act as a binding site for Aca2 proteins (FIG. 11B). […] To investigate the functions of Aca2 and Aca3, the acrlaca regions from Pectobacterium phage ZF40 and from N. meningitidis strain 2842STDY5881035 were investigated as representatives of the Aca2 and Aca3 families, respectively. The putative promoter regions of the anti-CRISPR genes in these two operons (FIGS. 11B and 11D) were cloned upstream of a promoterless lacZ reporter gene carried on a plasmid. When assayed in E. coli, both regions mediated robust transcription of the reporter as detected by measuring β-galactosidase activity in cell extracts (FIG. 7).
β-galactosidase reporter assays. β-galactosidase reporter plasmids were transformed into DH5a and PA14. Overnight cultures of transformed cells were subcultured 1:100 and grown for ˜3 hours with shaking (OD₆₀₀=0.4-0.7). β-galactosidase activity was then quantified using a method derived from Zhang and Bremer, 1995. […] The reaction was stopped with the addition of 700 μL of 1 M Na₂CO₃, A420 and A550 were measured, and Miller Units were calculated.

Series [8] addresses T2, Aca1. In words: EMSA; two shifted bands; 10-250 nM Aca1. As to conditions: tags: p15TV-L expression, Ni-NTA purified; chain copies: 2 (inferred; HTH proteins stated generally dimeric). Here is the method:
(§1) FIG. 3E: Electrophoretic mobility shift assays (EMSAs) were performed utilizing a fragment of dsDNA with the sequence shown, which encompasses the acr promoter region. The IR1 and IR2 mutants contained the triple and quadruple base substitutions indicated under the DNA sequence. Representative non-denaturing polyacrylamide gels stained with SYBR gold are shown. Purified Aca1 was added to the DNA at concentrations of 10 nM, 50 nM, 100 nM and 250 nM. […] FIG. 3F: The anti-CRISPR promoter region from phage JBD30 either wild-type (WT), or bearing IR1 and/or IR2 mutations was cloned upstream of a promoterless lacZ gene. β-galactosidase activity was measured in PA14 (−Aca1) or in a JBD30 lysogen (+Aca1). The mean β-galactosidase activity relative to the wild-type promoter is shown, with error bars representing standard error of the mean (n≥3). FIG. 3G: Ten-fold dilutions of lysates of anti-CRISPR phage JBD30 carrying the indicated inverted repeat mutations were applied to lawns of CRISPR-Cas intact PA14 or CRISPR deleted PA14 (PA14ΔCRISPR). Representative images from three biological replicates are shown.
Aca1 acts on the acr promoter. Aca1 proteins are bioinformatically predicted to contain a helix-turn-helix (HTH) DNA-binding motif (FIG. 8A). HTH-containing proteins are generally dimeric and bind to inverted repeat sequences. […]

Series [9] deals with T2, Aca1. In words: EMSA; no shift up to 250 nM. The settings on record: tags: p15TV-L expression, Ni-NTA purified; chain copies: 2 (inferred; HTH proteins stated generally dimeric). As to the method: as §1, with “Representative” for “FIG. 3E: Electrophoretic mobility shift assays (EMSAs) were performed utilizing a fragment of dsDNA with the sequence shown, which encompasses the acr promoter region. The IR1 and IR2 mutants contained the triple and quadruple base substitutions indicated under the DNA sequence. Representative”
Aca1 acts on the acr promoter. Aca1 proteins are bioinformatically predicted to contain a helix-turn-helix (HTH) DNA-binding motif (FIG. 8A). HTH-containing proteins are generally dimeric and bind to inverted repeat sequences. We identified two such sites with very similar sequences which we refer to as IR1 and IR2, flanking the −35 region of the acrIF1 promoter (FIG. 3B). […]

On to “phage A006 anti-CRISPR promoter palindrome”, for which the dissociation constant (Kd) (commonly the concentration at which binding is half-saturated) in series [1] was determined as 26 nM; in series [2] it was 28 nM.

Consider “AcrIIA1 (full-length, from Listeria phage ΦA006)”, for which the Nanoluciferase (NLuc) expression from the anti-CRISPR locus promoter, fold change in RLU, ΦA006acr::nluc lysogen in [3] turned out to be 5 fold.

B1: JBD30 acrIF1 promoter 110 bp upstream region (dsDNA)
DNA 1: TGGCCACTTTCGGACAAGCGGCACACTGTGCCTATTGCGAATTAGGCACAATGTGCCTAATCTAACGTCATGCCAGCCACAACGGCGAGGCGCCAACAAGGATTCAAACC
DNA 2: GGTTTGAATCCTTGTTGGCGCCTCGCCGTTGTGGCTGGCATGACGTTAGATTAGGCACATTGTGCCTAATTCGCAATAGGCACAGTGTGCCGCTTGTCCGAAAGTGGCCA
For B1, the binding result in [4] is listed as “no binding”. Further, in [5], the dissociation constant (Kd) was approximately 50 nM. This molecule also showed an activity in series [6] of 5 fold repression.

B2: ZF40 acrIF8 promoter region (dsDNA)
DNA 1: AGCCTCACCTCCGGCGTTGCCGTGGCGCTGTGTGATTTACAGGAAATAAAAAGGCCACGAATGCGGCCTTAGCGATTAAAAAATATGAAATGCCTTGCTTGTTCGCGATTGCGAACATATAATTTATTCATCGGTTCGAG
DNA 2: CTCGAACCGATGAATAAATTATATGTTCGCAATCGCGAACAAGCAAGGCATTTCATATTTTTTAATCGCTAAGGCCGCATTCGTGGCCTTTTTATTTCCTGTAAATCACACAGCGCCACGGCAACGCCGGAGGTGAGGCT
The molecule B2 returned an activity in [7] of 100 fold repression.

B3: acrIF1 promoter IR1-IR2 oligo WT (dsDNA)
DNA 1: ACAAGCGGCACACTGTGCCTATTGCGAATTAGGCACAATGTGCCTAATCTAACG
DNA 2: CGTTAGATTAGGCACATTGTGCCTAATTCGCAATAGGCACAGTGTGCCGCTTGT
On to B3, for which the binding result in [8] is “binds”.

B4: IR1+IR2 mutant oligo (dsDNA)
DNA 1: ACAAGCGTCGTACTGTGCCTATTGCGAGCTAGTCCCAATGTGCCTAATCTAACG
DNA 2: CGTTAGATTAGGCACATTGGGACTAGCTCGCAATAGGCACAGTACGACGCTTGT
Take B4: in series [9], the binding result is “no binding”.
